Experimental findings from PMC5349899 are described below.

Experiment [1] deals with biotinylated avi-tagged TGF-β3 (human). Description: SPR; biotinylated avi-tagged TGF-β2 or TGF-β3 captured on streptavidin-coated CM5 chip at 50-80 RU; analytes injected as two-fold dilution series in HBS-EP at 100 µL/min (150 s); BIAcore 3000; global fit to a simple 1:1 model.
The target in experiment [2] is biotinylated avi-tagged TGF-β2 (human). The experiment is described as above.
The target of experiment [3] is TGF-β2 (in the calorimeter cell). The experiment is described as follows: ITC; ER or RER (50-110 µM) in the syringe, TGF-β2 (5-8 µM) in the cell; 10 mM sodium phosphate pH 7.4, 30 mM CHAPS; 37°C; Microcal PEAQ-ITC.

As usually defined, the Kd is the constant that tells how readily two partners part at equilibrium. Read a low Kd as tighter binding. The koff is the rate constant with which the complex falls apart. Higher therefore signals a short-lived complex. The kon is a measure of how fast the partners come together. What is called stoichiometry N is the number of molecules, sites or subunits per partner or assembly. In experiment [1], “ER receptor trap (betaglycan endoglin domain-TβRII; rat BG-human TβRII receptor fusion) (designed binder)” displayed a Kd of 0.0505 nM, a koff of 1.97e-05 s⁻¹ and a kon of 391000 M⁻¹ s⁻¹. In experiment [2], the Kd was found to be 1.44 nM, the koff was found to be 0.000438 s⁻¹ and the on-rate constant (kon) amounted to 307000 M⁻¹ s⁻¹. In experiment [3], this substance displayed a Kd of 215 nM and a stoichiometry N of 1.05 sites.

As to “RER receptor trap (TβRII-betaglycan endoglin domain-TβRII) (designed binder)”, in experiment [1], the Kd was 0.0244 nM, the koff worked out at 9.44e-06 s⁻¹ and the on-rate constant (kon) was 387000 M⁻¹ s⁻¹. In experiment [2], the off-rate constant (koff) is 0.000253 s⁻¹ and the on-rate (kon) turned out to be 307000 M⁻¹ s⁻¹. In experiment [3], this substance returned a Kd of 128 nM and a stoichiometry N of 1.1 sites.

Consider “betaglycan endoglin domain (BGE) (domain or fragment)”, for which, in experiment [1], the Kd stood at 94.6 nM, the koff stood at 0.0124 s⁻¹ and the association rate constant (kon) came to 131000 M⁻¹ s⁻¹. Moreover, in experiment [2], the Kd was found to be 30.6 nM, the koff was found to be 0.00466 s⁻¹ and the on-rate (kon) came to 152000 M⁻¹ s⁻¹.

For “bivalent TGF-β receptor trap ER (BGE-RII) (from UniProt P37173 23-166)”, in the experiment with TGF-β1, the IC50 of inhibition of PAI-1 luciferase reporter activity in Mv1Lu mink lung epithelial cells induced with 20 pM TGF-β1 amounted to 14 pM; the reduction of Smad2 phosphorylation (Western blot) in MCF-10A cells stimulated with 2 pM TGF-β1 in the presence of 0, 0.01, 0.1, 1 and 10 nM ER is 30%.
